What was measured:
[1] = tested on: T1, SSTR2; experiment: in vivo; conditions: female, Wistar, rat, iv, total radioactivity
T1 construct: from tissue; host or cells: female Wistar rats in vivo (adrenals, pituitary, pancreas)
Method: Dynamic PET scans were performed on a small animal PET/MR scanner based on previously reported protocol. Briefly, female Wistar rats (208-231 g) were anaesthetized with a 5% isoflurane/ oxygen mixture before being maintained at 1-2% isoflurane/1 L/minute throughout the experiment. Rats tail veins were cannulated before being placed in the imaging cell (Bruker Biospin) which was then placed into the scanner; temperature and respiration were monitored throughout the scanning via a physiological monitoring system (SA Instruments, Stony Brook, NY, USA). Rats were injected with [^18F]AlF-3p-C-NETA-TATE (5.5-18.5 MBq, apparent molar activity 22 ± 8 GBq/μmol) at the start of the PET acquisition in presence or absence of octreotide acetate (2.5 mg/kg co-injection with radiopharmaceutical; blocking scans were performed the following day in the same animals). 75 min scans were carried out with the pituitary to kidneys in the PET FOV, during which respiration-gated 3D spin-echo MRI (TurboRARE sequence, TR = 500 mseconds (ms), TE = 18.8 ms, RARE factor = 8, FOV 14x6x6 cm, isotropic resolution of 0.5 mm) images were acquired with a quadrature radio-frequency resonator (transmit/receive, 86 mm internal diameter, Bruker Biospin). PET and MRI scans were then repeated at 100-120 minutes with the animal in the same position. Dynamic PET data were divided into timeframes (4×15 s, 1×240 s, 7×600 s) with corrections for decay, randoms, scatter and deadtime and then reconstructed using an MLEM algorithm with 24 iterations and an isotropic voxel size of 0.5 mm. PET images were normalized to injected activity and animal weight to give standardized uptake values (SUV), and selected organs were outlined to create volumes of interest after coregistration with MR images of which SUVmean values are reported; a circular VOI was placed over the splenic division of the pancreas (as visualised via tracer uptake and mapped to the blocked scan) to determine pancreatic uptake. All image analysis was carried out using the PFUSIT module of PMOD (v 4.004, PMOD Technologies Ltd., Zurich, Switzerland). Quantitative data are expressed as mean ± standard error of the mean (SEM).

[2] = biological target: T2, SSTR2 (Rattus norvegicus, UniProt P30680); parameters: method as in PMID 31997090; conditions: naïve rats, 2 h p.i.; cited from earlier work
T2 construct: from tissue; host or cells: female Wistar rats in vivo (adrenals, pituitary, pancreas)
T2 sequence (P30680 whole entry): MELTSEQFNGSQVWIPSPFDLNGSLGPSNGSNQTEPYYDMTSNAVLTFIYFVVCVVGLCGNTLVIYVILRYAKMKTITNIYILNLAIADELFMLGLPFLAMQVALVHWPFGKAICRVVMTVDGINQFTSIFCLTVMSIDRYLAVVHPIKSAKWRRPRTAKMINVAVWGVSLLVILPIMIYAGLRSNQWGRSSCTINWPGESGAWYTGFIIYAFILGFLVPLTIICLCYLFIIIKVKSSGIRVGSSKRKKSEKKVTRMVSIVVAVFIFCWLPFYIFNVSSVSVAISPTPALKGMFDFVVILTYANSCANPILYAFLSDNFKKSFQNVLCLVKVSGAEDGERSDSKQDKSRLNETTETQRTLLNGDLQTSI

Compound | SUV at 1.25 h ([1]; 2.5 mg/kg, SUV adrenals) [SUV] | SUV at 2 h ([1]; 2.5 mg/kg, SUV adrenals) [SUV] | SUV at 1.25 h ([1]; 2.5 mg/kg, SUV pancreas) [SUV] | SUV at 2 h ([1]; 2.5 mg/kg, SUV pancreas) [SUV] | SUV at 1.25 h ([1]; 2.5 mg/kg, SUV pituitary) [SUV] | SUV at 2 h ([1]; 2.5 mg/kg, SUV pituitary) [SUV] | SUV at 1.25 h ([1]; SUV adrenals) [SUV] | SUV at 2 h ([1]; SUV adrenals) [SUV] | SUV at 2 h ([1]; SUV blood and non-SSTR2 expressing organs) [SUV] | SUV at 2 h ([1]; SUV bone uptake in the spine) [SUV] | SUV at 1.25 h ([1]; SUV pancreas) [SUV] | SUV at 2 h ([1]; SUV pancreas) [SUV] | SUV at 1.25 h ([1]; SUV pituitary) [SUV] | SUV at 2 h ([1]; SUV pituitary) [SUV] | SUV bone uptake in the spine [2]
C[C@@H](O)[C@H](NC(=O)[C@@H]1CSSC[C@H](NC(=O)[C@@H](Cc2ccccc2)NC(=O)CCC(=O)Nc2ccc(CCCC(CN3CCN(CC(=O)O)CCN(CC(=O)O)CC3)N(CC(=O)O)CC(=O)O)cc2)C(=O)N[C@@H](Cc2ccc(O)cc2)C(=O)N[C@H](Cc2c[nH]c3ccccc23)C(=O)N[C@@H](CCCCN)C(=O)N[C@@H]([C@@H](C)O)C(=O)N1)C(=O)O (stereo partly drawn) [[^18F]AlF-3p-C-NETA-TATE] | 0.24 ± 0.03 | 0.18 ± 0.04 | 0.34 ± 0.2 | 0.31 ± 0.07 | 0.2 ± 0.04 | 0.21 ± 0.06 | 1.2 ± 0.59 | 1.22 ± 0.65 | < 0.6 | 0.43 ± 0.25 | 7.78 ± 4.26 | 8.35 ± 5.07 | 0.93 ± 0.34 | 0.93 ± 0.36 | 
[^18F]AlF-NOTA-Octreotide |  |  |  |  |  |  |  |  |  |  |  |  |  |  | 0.45 ± 0.03

Reference: paper PMC9373814, “3p-C-NETA: A versatile and effective chelator for development of Al^18F-labeled and therapeutic radiopharmaceuticals” (Theranostics, 2022)
